Laboratory results published in US20220332804A1 (CSL INNOVATION, published 2022).

Experiments:
Assay in all cases: SPR, mAb captured, C2 mutant analyte;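 note: Anti-C2 mAbs captured on goat anti-human IgG Biacore CM5 chips, alanine or serine C2 surface mutants flowed over at 37 °C, double-referenced sensorgrams fitted to a 1:1 binding model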
human C2 N325A = molecular target: T1, human C2 N325A (human, UniProt P06681 21-752)
T1 sequence: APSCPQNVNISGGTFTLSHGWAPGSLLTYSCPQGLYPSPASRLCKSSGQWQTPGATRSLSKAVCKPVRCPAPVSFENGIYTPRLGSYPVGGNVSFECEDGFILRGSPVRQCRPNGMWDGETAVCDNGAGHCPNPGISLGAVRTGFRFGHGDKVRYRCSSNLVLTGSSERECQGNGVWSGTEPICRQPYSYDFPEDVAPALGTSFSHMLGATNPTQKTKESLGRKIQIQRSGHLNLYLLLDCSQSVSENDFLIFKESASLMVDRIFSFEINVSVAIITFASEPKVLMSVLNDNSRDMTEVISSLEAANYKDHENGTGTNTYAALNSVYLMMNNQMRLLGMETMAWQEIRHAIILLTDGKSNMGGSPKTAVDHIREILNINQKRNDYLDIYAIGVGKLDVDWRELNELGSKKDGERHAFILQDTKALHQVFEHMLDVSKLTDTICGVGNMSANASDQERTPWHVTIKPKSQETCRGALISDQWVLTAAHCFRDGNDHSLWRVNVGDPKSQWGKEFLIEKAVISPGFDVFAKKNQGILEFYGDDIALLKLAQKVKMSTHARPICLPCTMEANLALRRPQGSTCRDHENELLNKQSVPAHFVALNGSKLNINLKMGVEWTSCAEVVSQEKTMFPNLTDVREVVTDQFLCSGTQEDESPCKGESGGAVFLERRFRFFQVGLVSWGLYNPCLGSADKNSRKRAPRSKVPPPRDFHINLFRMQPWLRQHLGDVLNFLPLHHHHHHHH

human C2 H331A = molecular target: T2, human C2 H331A (human, UniProt P06681 21-752)
T2 sequence: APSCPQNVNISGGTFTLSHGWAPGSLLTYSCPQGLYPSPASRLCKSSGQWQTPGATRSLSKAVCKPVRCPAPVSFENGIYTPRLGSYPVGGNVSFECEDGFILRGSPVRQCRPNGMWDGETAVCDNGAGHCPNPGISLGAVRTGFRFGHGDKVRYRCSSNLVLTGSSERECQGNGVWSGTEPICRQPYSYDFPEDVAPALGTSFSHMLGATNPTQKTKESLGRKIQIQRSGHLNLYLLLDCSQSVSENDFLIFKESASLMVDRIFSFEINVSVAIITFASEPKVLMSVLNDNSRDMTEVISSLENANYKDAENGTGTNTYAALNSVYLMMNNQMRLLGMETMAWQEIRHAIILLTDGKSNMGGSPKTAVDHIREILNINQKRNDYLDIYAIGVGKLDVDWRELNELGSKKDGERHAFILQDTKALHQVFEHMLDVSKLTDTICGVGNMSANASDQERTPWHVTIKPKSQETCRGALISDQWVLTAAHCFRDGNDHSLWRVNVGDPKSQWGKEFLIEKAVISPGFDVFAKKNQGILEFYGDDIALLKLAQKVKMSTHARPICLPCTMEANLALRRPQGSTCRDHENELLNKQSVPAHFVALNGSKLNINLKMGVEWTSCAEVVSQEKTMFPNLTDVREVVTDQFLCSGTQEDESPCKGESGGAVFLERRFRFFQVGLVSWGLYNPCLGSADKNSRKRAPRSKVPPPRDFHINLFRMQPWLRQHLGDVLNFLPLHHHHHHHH

human C2 N403A = molecular target: T3, human C2 N403A (human, UniProt P06681 21-752)
T3 sequence: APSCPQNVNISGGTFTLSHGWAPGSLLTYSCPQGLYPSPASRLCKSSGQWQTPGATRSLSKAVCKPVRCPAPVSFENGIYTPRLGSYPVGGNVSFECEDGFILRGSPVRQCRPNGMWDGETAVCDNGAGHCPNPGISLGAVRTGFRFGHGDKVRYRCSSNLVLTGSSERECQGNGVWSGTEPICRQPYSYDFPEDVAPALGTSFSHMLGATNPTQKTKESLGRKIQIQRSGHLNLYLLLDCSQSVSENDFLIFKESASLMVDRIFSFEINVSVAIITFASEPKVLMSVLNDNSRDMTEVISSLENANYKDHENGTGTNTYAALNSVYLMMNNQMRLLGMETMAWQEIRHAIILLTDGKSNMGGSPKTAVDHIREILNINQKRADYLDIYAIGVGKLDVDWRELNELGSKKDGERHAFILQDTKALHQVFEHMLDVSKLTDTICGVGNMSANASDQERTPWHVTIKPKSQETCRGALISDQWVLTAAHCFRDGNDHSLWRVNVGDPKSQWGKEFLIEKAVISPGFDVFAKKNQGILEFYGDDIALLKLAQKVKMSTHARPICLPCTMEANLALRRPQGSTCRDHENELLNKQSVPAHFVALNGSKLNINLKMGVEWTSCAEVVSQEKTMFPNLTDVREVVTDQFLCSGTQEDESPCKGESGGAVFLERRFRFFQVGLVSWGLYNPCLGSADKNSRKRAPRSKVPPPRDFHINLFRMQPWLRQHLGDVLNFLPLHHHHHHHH

human C2 A436S = molecular target: T4, human C2 A436S (human, UniProt P06681 21-752)
T4 sequence: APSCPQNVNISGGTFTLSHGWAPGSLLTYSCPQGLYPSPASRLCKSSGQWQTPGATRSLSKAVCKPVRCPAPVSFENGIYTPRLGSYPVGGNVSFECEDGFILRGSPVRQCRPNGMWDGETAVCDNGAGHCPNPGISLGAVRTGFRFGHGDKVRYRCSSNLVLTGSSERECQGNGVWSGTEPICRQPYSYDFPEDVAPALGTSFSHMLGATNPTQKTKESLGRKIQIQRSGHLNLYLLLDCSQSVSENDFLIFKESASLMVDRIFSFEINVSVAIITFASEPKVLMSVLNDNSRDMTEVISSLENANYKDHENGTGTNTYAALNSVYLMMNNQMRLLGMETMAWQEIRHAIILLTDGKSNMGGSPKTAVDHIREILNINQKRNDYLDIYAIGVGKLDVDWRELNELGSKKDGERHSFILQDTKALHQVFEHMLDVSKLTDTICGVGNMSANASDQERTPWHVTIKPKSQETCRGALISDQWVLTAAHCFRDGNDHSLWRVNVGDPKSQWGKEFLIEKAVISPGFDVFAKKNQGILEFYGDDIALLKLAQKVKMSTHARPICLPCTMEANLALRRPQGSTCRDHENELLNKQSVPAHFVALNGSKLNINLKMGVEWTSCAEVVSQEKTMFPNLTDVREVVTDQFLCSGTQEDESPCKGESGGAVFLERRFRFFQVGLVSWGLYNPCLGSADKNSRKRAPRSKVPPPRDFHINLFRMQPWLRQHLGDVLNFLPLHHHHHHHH

Kd (human C2 N325A): 328 nM
binding result (human C2 H331A): no binding
Kd (human C2 N403A): 29.6 nM
Kd (human C2 A436S): 31.2 nM
B1: RF16-214 (antibody, V domains shown)
VH: EVQLLESGGGLVQPGGSLRLSCAASGFTFSWYQMMWVRQAPGKGLEWVSRIYPSGGGTAYADSVKGRFTISRDNSKNTLYLQMNSLRAEDTAVYYCARDAGYGDNWGQGTLVTVSS
VL: QSALTQPPSVSVSPGQTASITCSGDKLGEKYASWYQQKAGQSPVMVIYQDRKRPSGIPERFSGSNSGNTATLTISGTQAMDEADYYCQAWDTRAVVFGGGTKLTVLG
